Reference: the supplement of paper PMC10126150
± gives the standard deviation of the averaged measurements.

The sequences below were run on ATP (assay: switch fluorescence ratio, 500 uM ATP over buffer (Cy3 cluster intensity, sum of 5 cycles each) (fold (ratio)); higher = stronger signal-on switching upon ATP binding; sequences stand for … in TCGTCGGCAGCGTCAGATGTGTATAAGAGACAGTTTTTTTTTTTTTTTTTTTTTTTTT…TC). Conditions: aptamer strand: ATP DNA aptamer (quencher-CACCTGGGGGAGTATTGCGGAGGAAGG + anchor), 100 nM annealed; ATP concentration: 500 uM.
Summary of the method: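 The fluorescence ratio divides summed target-cycle Cy3 intensity by summed buffer-cycle Cy3 intensity for each cluster and is averaged per switch-domain sequence. Cy3-labelled switching-strand clusters on a modified Illumina MiSeq flow-cell were annealed to 100 nM quencher-labelled ATP aptamer, then imaged in selection buffer and again after 15 min with 500 uM ATP at 22 °C. Five such cycles were run, with NaOH stripping and re-annealing between them, and clusters outside 100-1000 RFU were excluded.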
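Note: ATP exposure 15 min at 22 °C before imaging.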

| Sequence | switch fluorescence ratio |
| --- | --- |
| TTGCTGAGGA | 0.962 ± 0.015 |
| AACTGGTGTC | 1.006 ± 0.003 |
| TAGCTGTTAT | 0.997 ± 0.03 |
| GATTCAGGAC | 1.04 ± 0.012 |
| TAGTTTTTAT | 1.02 ± 0.014 |
| AGTATGGGGG | 1.02 ± 0.015 |
| GGAACTGTGC | 0.948 ± 0.12 |
| CAAAAGTTGA | 1.01 ± 0.053 |
| GTCGGTCTGG | 1 ± 0.098 |
| GTAATAGAGA | 1.01 ± 0.043 |
| GGTGTGAGTA | 1.01 ± 0.016 |
| TTGATTATTA | 1.02 ± 0.045 |
| ATCCGATACG | 1.18 ± 0.023 |
| ATCCTCGGGA | 1.01 ± 0.034 |
| CCAAGGGAGG | 1.01 ± 0.03 |
| GGTACGAACG | 1.29 ± 0.045 |
| TAGCAGGCTA | 1 ± 0.013 |
| TAACCACCTT | 1.12 ± 0.044 |
| TAAAGAACAT | 0.997 ± 0.057 |
| TAGGTCGATA | 1 ± 0.023 |
| CACTAATAAT | 1.033 ± 0.0029 |
| TTTAGGCCCA | 1.03 ± 0.041 |
| CGCCTAAACG | 1.04 ± 0.042 |

| Sequence | switch fluorescence ratio |
| --- | --- |
| CGGAGTTGAA | 1.07 ± 0.027 |
| GAGGTTGGAT | 0.982 ± 0.016 |
| GGGTGGAAAA | 0.997 ± 0.048 |
| GAGTGGGTAG | 1.03 ± 0.025 |
| ATGGGTTGAG | 1.01 ± 0.0072 |
| TGGGGTAGGT | 0.999 ± 0.011 |
| CCGGTATTGA | 0.994 ± 0.017 |
| GTGGGGTTTC | 0.977 ± 0.032 |
| CGGCTGTTTT | 1.037 ± 0.0082 |
| GCGGCTTGTG | 0.9988 ± 0.0089 |
| TTCCAAAAAA | 1.1 ± 0.04 |
| CGGGGCTCCG | 0.967 ± 0.023 |
| GTTCGACGGC | 1.05 ± 0.095 |
| CGATGGCGAC | 1.016 ± 0.0051 |
| GCTTATTGTT | 0.99355 ± 0.00014 |
| AACTGGGGTG | 1.03 ± 0.03 |
| GCTGTTTTTT | 1 ± 0.044 |
| TTGGGTGCTA | 1.09 ± 0.16 |
| GAGGCATGGG | 1.027 ± 0.0065 |
| CGGTTCGGCT | 1.04 ± 0.047 |
| GGTATGGTAC | 1.086 ± 0.0055 |
| TGCATTCTGA | 1.02 ± 0.025 |
| TGTGACGGGA | 1.091 ± 0.0051 |

| Sequence | switch fluorescence ratio |
| --- | --- |
| TTTGTTTATC | 1.02 ± 0.057 |
| AAATCGGGTT | 1.15 ± 0.28 |
| GAAGTGATGG | 1.135 ± 0.008 |
| GTCGGGGATA | 1 ± 0.049 |
| GGAACGTGGT | 0.971 ± 0.017 |
| AGTGGGTAGA | 1.04 ± 0.049 |
| GTGGGGGG | 0.999 ± 0.029 |
| TTTTAGTTCC | 1.05 ± 0.018 |
| TTCAGGTGTG | 1.142 ± 0.0073 |
| AATTACGGTG | 1.05 ± 0.022 |
| AGGCCGTAGG | 0.937 ± 0.048 |
| GGGAGTGATG | 0.986 ± 0.019 |
| TGTGATTGTT | 1.02 ± 0.013 |
| TATTGCTTTC | 1.03 ± 0.018 |
| TGCAGCTAGC | 1.05 ± 0.021 |
| AGGCAGGTTG | 0.985 ± 0.019 |
| AGGAGACGAA | 0.985 ± 0.031 |
| ATTGCAGATC | 1.05 ± 0.058 |
| ATTAAAAAAA | 1.11 ± 0.18 |
| GTGTTATAAT | 0.986 ± 0.021 |
| TCTAGACGTC | 0.9972 ± 0.0081 |
| CCCACAGGAC | 1.73 ± 0.14 |
| GAAAATTTTT | 1.06 ± 0.044 |

| Sequence | switch fluorescence ratio |
| --- | --- |
| GGGTTTTCCG | 1.02 ± 0.035 |
| TTGTCCTGGG | 1.02 ± 0.012 |
| TAGATATGCG | 1.03 ± 0.015 |
| CCAGCACCTC | 1.45 ± 0.039 |
| GGCAGATGAC | 0.9674 ± 0.0031 |
| GAAAACTTAA | 1.029 ± 0.006 |
| GAAAAGGGAG | 0.974 ± 0.032 |
| CGTTTGTCAG | 0.965 ± 0.033 |
| TTGAGCCGGT | 1 ± 0.045 |
| GATGAAAAAG | 1.033 ± 0.0093 |
| CAAGTCAAGG | 1.007 ± 0.0062 |
| CTAGGATGTG | 0.997 ± 0.031 |
| GGTTTTATAT | 1.006 ± 0.0068 |
| ATGAGTATTT | 0.979 ± 0.046 |
| TCTGGGGCTT | 1.0237 ± 0.00017 |
| TATTATGGCG | 1.04 ± 0.014 |
| CAAATGCATA | 1.08 ± 0.017 |
| CTGGCTAGGT | 0.988 ± 0.057 |
| GGAGGGGAAG | 1.07 ± 0.14 |
| GTTTTGAATT | 1 ± 0.04 |
| ATAAGCGTTC | 1.04 ± 0.0013 |
| CAGTTAGTAC | 1.1 ± 0.018 |
| TGTGTTTGTT | 0.998 ± 0.017 |

| Sequence | switch fluorescence ratio |
| --- | --- |
| GGGAGGGATG | 1.02 ± 0.024 |
| AGTAAAGTTC | 1.03 ± 0.028 |
| GAAAGGCAAA | 1.025 ± 0.0026 |
| GGTAGGTGGG | 1.01 ± 0.055 |
| ATCGGGCGGG | 1.02 ± 0.02 |
| TCTTGTTTTT | 0.977 ± 0.022 |
| CGGGGGGAAG | 1.01 ± 0.029 |
| CGGCTGCGGG | 0.978 ± 0.022 |
| TGTTGAAGGG | 1.01 ± 0.014 |
| GGGGATTTTG | 0.9746 ± 0.0022 |
| GGTGAGCCTT | 0.987 ± 0.012 |
| TTAAAGGCCC | 1.0667 ± 4.6e-05 |
| TTTTGTTAGA | 1.03 ± 0.022 |
| GTCGGGGGTT | 1.02 ± 0.049 |
| GGGTATGGTT | 0.998 ± 0.028 |
| GGGCCTTGGG | 1.03 ± 0.049 |
| TCGGAGTCTG | 1.04 ± 0.056 |
| TGTTAATGGT | 0.994 ± 0.025 |
| GGGGTAACGT | 0.983 ± 0.02 |
| TTGATGGTGG | 0.987 ± 0.056 |
| TGCGGGGCAG | 1.04 ± 0.072 |
| TACCATTTAG | 0.997 ± 0.025 |
| AATGAACTAG | 1.01 ± 0.053 |

| Sequence | switch fluorescence ratio |
| --- | --- |
| ATTACAAAAA | 1.01 ± 0.014 |
| CTTATTTTTT | 1.01 ± 0.029 |
| TTGGTGCCGT | 1.13 ± 0.046 |
| GGTACGTTGG | 1.02 ± 0.0078 |
| GGGTATCCTT | 1.01 ± 0.025 |
| CGAATGAGGT | 0.99 ± 0.04 |
| CAGATTCGAG | 1.008 ± 0.01 |
| AAACTGTACT | 1.425 ± 0.0099 |
| GCAACGGGAG | 0.988 ± 0.035 |
| GGAAGTGGTC | 1.01 ± 0.059 |
| TTTCTGGGTC | 1.02 ± 0.068 |
| GAAAATTAGT | 1.016 ± 0.0023 |
| CTATCGGGTA | 0.9966 ± 0.0097 |
| ATAATTGTCT | 1.04 ± 0.04 |
| GGGGGGACGC | 1.02 ± 0.013 |
| CAATGATTGA | 1.02 ± 0.018 |
| GACGAAATTG | 0.99836 ± 0.0003 |
| TTTCGGGACC | 1.04 ± 0.031 |
| AGCTGATGGG | 1.01 ± 0.014 |
| TACAAGGCTT | 0.993 ± 0.027 |
| TAGCAGGGTC | 1.089 ± 0.0072 |
| ATGTAATCTA | 0.961 ± 0.036 |
| TTATCGTGTC | 1.02 ± 0.023 |

| Sequence | switch fluorescence ratio |
| --- | --- |
| TTAACGGCGC | 1.04 ± 0.081 |
| AATGTTTCTG | 0.998 ± 0.038 |
| GCGTGTGAGC | 1 ± 0.012 |
| CTTACCTTGA | 0.997 ± 0.031 |
| TGAAGTAATC | 1.42 ± 0.43 |
| CGCAGGGTTC | 1.13 ± 0.12 |
| GATCATTCTT | 1.01 ± 0.016 |
| GGGCTATCCG | 0.983 ± 0.024 |
| TTTTCTTGAA | 0.9852 ± 0.0038 |
| ACGGGGTAAA | 1.004 ± 0.009 |
| AATTTTTTGA | 0.972 ± 0.033 |
| TAGTGCGGGA | 1.02 ± 0.073 |
| GACGATGTAA | 1.18 ± 0.018 |
| GGCAGTCCGG | 0.9876 ± 0.0024 |
| GATGTGTGTT | 0.9735 ± 0.0089 |
| GCCTGCGGGA | 1.1 ± 0.13 |
| GCGGGGGGTC | 1.06 ± 0.091 |
| TGATAAATAC | 1.33 ± 0.069 |
| GATTGCCGTG | 1.03 ± 0.024 |
